The values that follow come from publication PMC9352680, “A comprehensive thermodynamic model for RNA binding by the Saccharomyces cerevisiae Pumilio protein PUF4”.

In this data set the target is T1, PUF4 RNA-binding domain (Saccharomyces cerevisiae, UniProt P25339 537-888).
T1 sequence: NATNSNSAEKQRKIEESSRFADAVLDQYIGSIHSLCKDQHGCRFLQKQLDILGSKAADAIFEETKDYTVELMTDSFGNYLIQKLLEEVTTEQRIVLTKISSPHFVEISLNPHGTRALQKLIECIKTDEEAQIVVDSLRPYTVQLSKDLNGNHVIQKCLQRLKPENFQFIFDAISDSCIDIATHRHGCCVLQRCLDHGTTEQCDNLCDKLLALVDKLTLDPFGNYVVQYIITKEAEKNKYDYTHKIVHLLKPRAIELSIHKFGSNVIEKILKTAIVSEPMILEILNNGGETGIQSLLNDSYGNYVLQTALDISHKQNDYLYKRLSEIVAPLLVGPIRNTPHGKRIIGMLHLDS
In words: Mg; RNA-MaP; 20 mM Na-HEPES pH 7.4, 30 mM KOAc, 0.75 mM MgCl2, 0.1% Tween-20, 5% glycerol, 0.1 mg/mL BSA, 2 mM DTT; 25 C; 0.0125-409.6 nM protein. To be noted: tags: N-His6-TEV cleaved; C-SNAP kept, Cy3B-labelled; label: tethered on chip by stalled RNA polymerase.

B1: Ic_S1_P5E.1_K5.1_C5.1_H5.1_A5.1_[T6C]_[A7G]_F5.1_[T9A]_[A10C]_T5.1 (ssRNA)
RNA: UCUCUUUGUAUCGUACUCUCUU
For B1, binding was put at a Kd of 13.9 nM.

B2: Ic_S1_P5E.1_K5.1_C5.1_H5.1_A5.1_[T5C]_[T6A]_[A7C]_F5.1_[T8G]_[T9C]_[A10C]_T5.1 (ssRNA)
RNA: UCUCUUUGUACACGCCUCUCUU
With B2, the Kd (as a rule, a measure of binding affinity in units of concentration) was 394 nM.

B3: Ib_S1_P3E.1_K3.1_C3.1_H3.1_[G2C]_[T3C]_A3.1_F3.1_T3.1 (ssRNA)
RNA: UCUCUUUCCAUAUAUCUCUU
With B3, the Kd was greater than 2300 nM.

B4: Ic_S1_P5E.1_K5.1_C5.1_H5.1_A5.1_[T5C]_[T6A]_F5.1_[T8A]_[T9A]_[A10T]_T5.1 (ssRNA)
RNA: UCUCUUUGUACAAAAUUCUCUU
On to B4, for which binding was put at a Kd of 30.9 nM.

B5: Ic_S1_P5E.1_K5.1_C5.1_H5.1_A5.1_[A7C]_F5.1_[T8G]_[T9G]_[A10T]_T5.1 (ssRNA)
RNA: UCUCUUUGUAUUCGGUUCUCUU
As to B5, the Kd is 578 nM.

B6: Ic_S1_P5E.1_K5.1_C5.1_H5.1_A5.1_[T5A]_[T6A]_[A7T]_F5.1_[T9G]_[A10T]_T5.1 (ssRNA)
RNA: UCUCUUUGUAAAUUGUUCUCUU
In turn, B6 showed a Kd of 11.5 nM.

B7: Ic_S1_P5E.1_K5.1_C5.1_H5.1_A5.1_[T5C]_[A7C]_F5.1_[T9G]_[A10T]_T5.1 (ssRNA)
RNA: UCUCUUUGUACUCUGUUCUCUU
Regarding B7, the Kd stood at 21.5 nM.

B8: Ic_S1_P5E.1_K5.1_C5.1_H5.1_A5.1_[T5C]_[T6C]_F5.1_[T8G]_[A10C]_T5.1 (ssRNA)
RNA: UCUCUUUGUACCAGUCUCUCUU
Take B8: the Kd was determined as 363 nM.

B9: Ic_S1_P5E.1_K5.1_C5.1_H5.1_A5.1_[T5A]_[T6A]_[A7T]_F5.1_[A10T]_T5.1 (ssRNA)
RNA: UCUCUUUGUAAAUUUUUCUCUU
B9: the Kd worked out at 22.4 nM. Compared with the last molecule, the Kd is about 16-fold lower.

B10: Ib_S1_P3E.1_K3.1_C3.1_H3.1_[G2C]_[T3G]_A3.1_F3.1_T3.1 (ssRNA)
RNA: UCUCUUUCGAUAUAUCUCUU
B10 had a Kd greater than 2300 nM.

B11: Ic_S1_P5E.1_K5.1_C5.1_H5.1_A5.1_[T5G]_[A7C]_F5.1_[T9A]_T5.1 (ssRNA)
RNA: UCUCUUUGUAGUCUAAUCUCUU
Regarding B11, the affinity, expressed as Kd, was 36 nM.

B12: Ic_S1_P5E.1_K5.1_C5.1_H5.1_A5.1_[T5C]_[T6C]_[A7C]_F5.1_[T8G]_[T9C]_[A10G]_T5.1 (ssRNA)
RNA: UCUCUUUGUACCCGCGUCUCUU
B12 displayed a Kd greater than 2300 nM.

B13: Ic_S1_P5E.1_K5.1_C5.1_H5.1_A5.1_[T5G]_[T6C]_F5.1_[T9C]_T5.1 (ssRNA)
RNA: UCUCUUUGUAGCAUCAUCUCUU
Take B13: binding was characterised by a dissociation constant (Kd) of 287 nM.

B14: Ic_S1_P5E.1_K5.1_C5.1_H5.1_A5.1_[T5A]_[T6G]_[A7C]_F5.1_[T8A]_[T9C]_[A10T]_T5.1 (ssRNA)
RNA: UCUCUUUGUAAGCACUUCUCUU
Molecule B14 registered a Kd greater than 2300 nM.

B15: Ic_S1_P5E.1_K5.1_C5.1_H5.1_A5.1_[T5C]_[T6C]_[A7G]_F5.1_[T8G]_[T9C]_[A10C]_T5.1 (ssRNA)
RNA: UCUCUUUGUACCGGCCUCUCUU
The molecule B15 showed a Kd greater than 2300 nM.

B16: Ic_S1_P5E.1_K5.1_C5.1_H5.1_A5.1_[T5C]_[T6A]_[A7C]_F5.1_[T9C]_[A10C]_T5.1 (ssRNA)
RNA: UCUCUUUGUACACUCCUCUCUU
In the case of B16, binding was characterised by a dissociation constant (Kd) of 7.65 nM.

B17: Ic_S1_P5E.1_K5.1_C5.1_H5.1_A5.1_[T5C]_[T6A]_[A7C]_F5.1_[T8C]_[T9G]_T5.1 (ssRNA)
RNA: UCUCUUUGUACACCGAUCUCUU
In the case of B17, the Kd stood at 425 nM.

B18: Ic_S1_P5E.1_K5.1_C5.1_H5.1_A5.1_[T5G]_[T6C]_F5.1_[T9A]_[A10G]_T5.1 (ssRNA)
RNA: UCUCUUUGUAGCAUAGUCUCUU
B18 came in with a Kd of 9.57 nM.

B19: Ic_S1_P5E.1_K5.1_C5.1_H5.1_A5.1_[T6A]_[A7G]_F5.1_[T8C]_[T9C]_[A10T]_T5.1 (ssRNA)
RNA: UCUCUUUGUAUAGCCUUCUCUU
B19 registered a Kd of 114 nM.

B20: Ic_S1_P5E.1_K5.1_C5.1_H5.1_A5.1_[T5A]_[T6C]_[A7C]_F5.1_[T8A]_[A10G]_T5.1 (ssRNA)
RNA: UCUCUUUGUAACCAUGUCUCUU
The molecule B20 gave a Kd of 481 nM.

B21: Ic_S1_P5E.1_K5.1_C5.1_H5.1_A5.1_[T6A]_F5.1_[T8C]_[T9A]_[A10T]_T5.1 (ssRNA)
RNA: UCUCUUUGUAUAACAUUCUCUU
Molecule B21 registered a Kd of 12.6 nM.

B22: Ic_S1_P5E.1_K5.1_C5.1_H5.1_A5.1_[T6A]_F5.1_[T9G]_[A10G]_T5.1 (ssRNA)
RNA: UCUCUUUGUAUAAUGGUCUCUU
Turning to B22, the affinity, expressed as Kd, was 8.53 nM. This Kd and that of the molecule before are within 1.5-fold of each other.

B23: Ic_S1_P5E.1_K5.1_C5.1_H5.1_A5.1_[T5C]_[T6G]_[A7C]_F5.1_[T8G]_[A10C]_T5.1 (ssRNA)
RNA: UCUCUUUGUACGCGUCUCUCUU
In turn, B23 had a Kd of 1980 nM.

B24: Ic_S1_P5E.1_K5.1_C5.1_H5.1_A5.1_[T5A]_[T6C]_[A7T]_F5.1_[T8C]_[T9G]_[A10G]_T5.1 (ssRNA)
RNA: UCUCUUUGUAACUCGGUCUCUU
B24 displayed a Kd greater than 2300 nM.

B25: Ic_S1_P5E.1_K5.1_C5.1_H5.1_A5.1_[T6G]_[A7G]_F5.1_[A10T]_T5.1 (ssRNA)
RNA: UCUCUUUGUAUGGUUUUCUCUU
Turning to B25, the Kd is 159 nM.

B26: Ic_S1_P5E.1_K5.1_C5.1_H5.1_A5.1_[T5A]_F5.1_[T8A]_[A10T]_T5.1 (ssRNA)
RNA: UCUCUUUGUAAUAAUUUCUCUU
B26 came in with a Kd of 324 nM.

B27: Ic_S1_P5E.1_K5.1_C5.1_H5.1_A5.1_F5.1_[T8C]_[T9C]_[A10T]_T5.1 (ssRNA)
RNA: UCUCUUUGUAUUACCUUCUCUU
Molecule B27 yielded a Kd of 496 nM.

B28: Ic_S1_P5E.1_K5.1_C5.1_H5.1_A5.1_[T6G]_F5.1_[T8C]_[T9C]_T5.1 (ssRNA)
RNA: UCUCUUUGUAUGACCAUCUCUU
Take B28: binding was characterised by a dissociation constant (Kd) of 1110 nM.

B29: Ic_S1_P5E.1_K5.1_C5.1_H5.1_A5.1_[T5A]_[T6C]_[A7C]_F5.1_[T9C]_[A10G]_T5.1 (ssRNA)
RNA: UCUCUUUGUAACCUCGUCUCUU
In the case of B29, the Kd worked out at 123 nM.
